Data published in paper PMC3187938.

Biological target: affinity-matured, humanized, antiprostate stem-cell antigen (PSCA) minibody (clone A11.1 2C3)
Test: SEC

- stoichiometry N: 2
B1: affinity-matured, humanized, antiprostate stem-cell antigen (PSCA) minibody (clone A11.1 2C3) (antibody, V domains shown)
VH: EVQLVEYGGGLVQPGGSLRLSCAASGFNIKDYYIHWVRQAPGKGLEWVAWIDPENGDTEFVPKFQGRATMSADTSKNTAYLQMNSLRAEDTAVYYCKTGGFWGQGTLVTVSS
VL: DIQLTQSPSTLSASMGDRVTITCSASSSVRFIHWYQQKPGKAPKRLIYDTSKLASGVPSRFSGSGSGTDFTLTISSLQPEDFATYYCQQWGSSPFTFGQGTKVEIK
